According to IntAct's records for PubMed 19536138:
Blank lines part the entries; values can stand above or below the substance they belong to.

Experiments:
clh1_rat Cltc [1] = molecular target: clh1_rat Cltc (UniProt P11442)
clh1_rat Cltc [2] = molecular target: clh1_rat Cltc (UniProt P11442); remark: listed apart in the source
clh1_rat Cltc [3] = molecular target: clh1_rat Cltc (UniProt P11442); remark: listed apart in the source

clh1_rat Cltc, sequence (P11442 whole entry): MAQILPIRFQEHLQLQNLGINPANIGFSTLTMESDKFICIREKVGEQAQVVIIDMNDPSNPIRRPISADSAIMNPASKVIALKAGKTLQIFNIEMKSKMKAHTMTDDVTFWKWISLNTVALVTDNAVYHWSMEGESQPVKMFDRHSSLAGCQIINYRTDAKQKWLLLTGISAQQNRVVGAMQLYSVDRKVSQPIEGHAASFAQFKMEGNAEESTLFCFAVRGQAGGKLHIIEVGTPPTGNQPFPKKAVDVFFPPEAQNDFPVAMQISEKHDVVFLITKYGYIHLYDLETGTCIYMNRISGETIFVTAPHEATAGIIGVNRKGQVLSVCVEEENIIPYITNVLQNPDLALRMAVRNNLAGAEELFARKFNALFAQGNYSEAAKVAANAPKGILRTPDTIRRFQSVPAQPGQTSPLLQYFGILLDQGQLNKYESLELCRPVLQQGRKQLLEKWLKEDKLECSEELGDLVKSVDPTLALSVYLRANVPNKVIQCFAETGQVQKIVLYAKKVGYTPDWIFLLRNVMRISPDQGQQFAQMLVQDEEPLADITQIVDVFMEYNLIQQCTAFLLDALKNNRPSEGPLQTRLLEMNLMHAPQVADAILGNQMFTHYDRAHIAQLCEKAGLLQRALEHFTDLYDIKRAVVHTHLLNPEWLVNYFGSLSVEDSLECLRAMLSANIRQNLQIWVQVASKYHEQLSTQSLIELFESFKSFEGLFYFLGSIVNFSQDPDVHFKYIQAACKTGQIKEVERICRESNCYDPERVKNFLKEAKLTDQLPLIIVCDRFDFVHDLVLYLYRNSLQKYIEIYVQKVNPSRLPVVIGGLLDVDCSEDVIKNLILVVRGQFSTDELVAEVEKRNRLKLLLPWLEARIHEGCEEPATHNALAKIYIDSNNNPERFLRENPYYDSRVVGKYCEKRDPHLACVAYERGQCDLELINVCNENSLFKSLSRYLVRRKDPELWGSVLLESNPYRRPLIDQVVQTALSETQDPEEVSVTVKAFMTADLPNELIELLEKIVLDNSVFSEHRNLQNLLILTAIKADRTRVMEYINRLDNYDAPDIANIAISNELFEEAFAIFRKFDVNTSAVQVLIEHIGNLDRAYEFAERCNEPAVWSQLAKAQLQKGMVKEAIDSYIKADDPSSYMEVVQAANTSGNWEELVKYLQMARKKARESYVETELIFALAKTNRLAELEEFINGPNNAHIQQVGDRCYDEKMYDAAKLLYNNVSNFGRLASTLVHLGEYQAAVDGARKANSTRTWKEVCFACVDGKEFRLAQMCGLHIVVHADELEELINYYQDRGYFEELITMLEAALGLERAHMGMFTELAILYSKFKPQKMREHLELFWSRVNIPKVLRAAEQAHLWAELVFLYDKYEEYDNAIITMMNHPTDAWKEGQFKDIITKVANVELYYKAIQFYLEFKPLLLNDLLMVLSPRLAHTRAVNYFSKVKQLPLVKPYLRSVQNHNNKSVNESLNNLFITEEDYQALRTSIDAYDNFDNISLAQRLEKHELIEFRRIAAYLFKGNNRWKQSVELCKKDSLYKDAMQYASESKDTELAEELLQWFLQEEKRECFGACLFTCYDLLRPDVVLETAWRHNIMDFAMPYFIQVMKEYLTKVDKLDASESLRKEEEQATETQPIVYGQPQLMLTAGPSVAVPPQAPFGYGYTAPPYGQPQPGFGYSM
Inositol polyphosphate 5-phosphatase OCRL (Homo sapiens), Q01968 I74Q, sequence (Q01968 whole entry I74Q): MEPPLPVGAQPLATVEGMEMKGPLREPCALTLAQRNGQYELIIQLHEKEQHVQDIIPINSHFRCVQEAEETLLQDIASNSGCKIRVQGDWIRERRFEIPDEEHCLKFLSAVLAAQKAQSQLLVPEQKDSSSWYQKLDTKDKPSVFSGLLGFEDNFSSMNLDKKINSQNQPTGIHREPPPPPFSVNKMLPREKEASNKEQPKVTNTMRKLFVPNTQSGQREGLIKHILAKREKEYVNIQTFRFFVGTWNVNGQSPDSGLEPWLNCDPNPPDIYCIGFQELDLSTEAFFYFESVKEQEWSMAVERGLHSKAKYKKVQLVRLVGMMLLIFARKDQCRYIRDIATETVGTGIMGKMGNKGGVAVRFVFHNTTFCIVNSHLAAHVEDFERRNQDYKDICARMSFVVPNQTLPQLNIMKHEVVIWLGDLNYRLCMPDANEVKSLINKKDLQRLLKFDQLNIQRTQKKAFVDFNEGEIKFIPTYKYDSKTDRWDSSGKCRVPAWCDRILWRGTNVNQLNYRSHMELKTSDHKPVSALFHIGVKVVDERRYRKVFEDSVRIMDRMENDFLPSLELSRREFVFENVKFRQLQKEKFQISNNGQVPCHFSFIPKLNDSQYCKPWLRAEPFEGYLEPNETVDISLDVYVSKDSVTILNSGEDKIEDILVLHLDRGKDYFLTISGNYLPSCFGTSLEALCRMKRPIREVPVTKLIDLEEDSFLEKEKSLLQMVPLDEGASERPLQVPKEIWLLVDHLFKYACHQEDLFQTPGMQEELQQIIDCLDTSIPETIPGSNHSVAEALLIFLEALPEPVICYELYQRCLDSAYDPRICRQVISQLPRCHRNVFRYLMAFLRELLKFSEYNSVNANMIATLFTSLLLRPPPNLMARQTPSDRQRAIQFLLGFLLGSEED
Inositol polyphosphate 5-phosphatase OCRL (Homo sapiens), Q01968 L73S, sequence (Q01968 whole entry L73S): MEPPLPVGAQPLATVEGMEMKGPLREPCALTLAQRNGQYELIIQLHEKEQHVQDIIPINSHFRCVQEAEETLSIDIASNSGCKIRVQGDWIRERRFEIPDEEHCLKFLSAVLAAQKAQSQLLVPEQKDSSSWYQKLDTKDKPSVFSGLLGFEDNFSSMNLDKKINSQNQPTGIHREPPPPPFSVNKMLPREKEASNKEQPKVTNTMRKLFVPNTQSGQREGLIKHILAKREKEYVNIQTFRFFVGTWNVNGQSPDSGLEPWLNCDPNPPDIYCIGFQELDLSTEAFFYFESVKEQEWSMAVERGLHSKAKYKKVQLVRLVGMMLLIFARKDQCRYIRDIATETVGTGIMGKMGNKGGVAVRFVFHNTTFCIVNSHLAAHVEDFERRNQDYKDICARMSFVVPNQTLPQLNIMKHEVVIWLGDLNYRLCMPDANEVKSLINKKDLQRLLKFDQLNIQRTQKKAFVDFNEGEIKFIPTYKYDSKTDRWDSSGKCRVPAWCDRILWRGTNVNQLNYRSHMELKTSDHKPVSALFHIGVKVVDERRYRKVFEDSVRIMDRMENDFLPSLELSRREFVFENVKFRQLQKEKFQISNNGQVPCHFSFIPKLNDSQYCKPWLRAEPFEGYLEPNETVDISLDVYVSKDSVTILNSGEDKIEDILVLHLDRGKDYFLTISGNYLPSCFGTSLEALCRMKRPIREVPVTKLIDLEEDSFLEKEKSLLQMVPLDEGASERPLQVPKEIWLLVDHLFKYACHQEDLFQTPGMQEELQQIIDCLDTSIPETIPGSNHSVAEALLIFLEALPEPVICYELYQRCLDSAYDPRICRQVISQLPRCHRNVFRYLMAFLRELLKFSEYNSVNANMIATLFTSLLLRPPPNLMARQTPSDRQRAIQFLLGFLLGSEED
Inositol polyphosphate 5-phosphatase OCRL (Homo sapiens), Q01968 I76Q, sequence (Q01968 whole entry I76Q): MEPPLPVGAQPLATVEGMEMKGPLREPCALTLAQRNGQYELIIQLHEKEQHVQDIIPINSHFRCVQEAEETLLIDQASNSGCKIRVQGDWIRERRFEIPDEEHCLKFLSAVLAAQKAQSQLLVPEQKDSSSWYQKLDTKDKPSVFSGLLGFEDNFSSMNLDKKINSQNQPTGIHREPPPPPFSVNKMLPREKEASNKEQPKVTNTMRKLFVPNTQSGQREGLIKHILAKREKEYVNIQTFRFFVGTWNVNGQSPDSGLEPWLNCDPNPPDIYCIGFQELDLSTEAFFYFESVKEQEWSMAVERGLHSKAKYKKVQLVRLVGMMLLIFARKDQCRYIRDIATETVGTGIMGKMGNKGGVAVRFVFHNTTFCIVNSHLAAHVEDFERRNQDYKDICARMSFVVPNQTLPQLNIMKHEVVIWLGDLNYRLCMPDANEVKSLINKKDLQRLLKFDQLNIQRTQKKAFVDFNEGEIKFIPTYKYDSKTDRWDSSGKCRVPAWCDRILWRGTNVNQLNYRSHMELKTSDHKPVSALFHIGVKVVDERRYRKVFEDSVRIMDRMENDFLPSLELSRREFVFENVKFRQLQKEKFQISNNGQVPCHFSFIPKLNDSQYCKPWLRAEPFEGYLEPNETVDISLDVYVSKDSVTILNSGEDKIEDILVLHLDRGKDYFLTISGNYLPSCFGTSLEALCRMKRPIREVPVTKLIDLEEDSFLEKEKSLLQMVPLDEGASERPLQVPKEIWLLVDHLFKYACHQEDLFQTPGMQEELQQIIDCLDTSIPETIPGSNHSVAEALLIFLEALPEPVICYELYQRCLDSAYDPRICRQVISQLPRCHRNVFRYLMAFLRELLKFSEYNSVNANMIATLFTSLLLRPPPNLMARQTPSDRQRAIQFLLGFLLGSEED

effect of a mutation on the interaction (clh1_rat Cltc [1]): disrupting interaction
Substance: Inositol polyphosphate 5-phosphatase OCRL (Homo sapiens), Q01968 I76Q

effect of a mutation on the interaction (clh1_rat Cltc [2]): disrupting interaction
Substance: Inositol polyphosphate 5-phosphatase OCRL (Homo sapiens), Q01968 L73S

effect of a mutation on the interaction (clh1_rat Cltc [3]): disrupting interaction
Substance: Inositol polyphosphate 5-phosphatase OCRL (Homo sapiens), Q01968 I74Q
